Laboratory results from article PMC10055104, “Organic Anion Transporting Polypeptide 3A1 (OATP3A1)-Gated Bio-Orthogonal Labeling of Intracellular Proteins” (Molecules, 2023).

T1: OATP3A1 (Homo sapiens, UniProt Q9UIG8)
T1 construct: gene SLCO3A1; full-length transporter overexpressed in HEK-293 cells by recombinant lentivirus
T1 sequence (Q9UIG8 1-710): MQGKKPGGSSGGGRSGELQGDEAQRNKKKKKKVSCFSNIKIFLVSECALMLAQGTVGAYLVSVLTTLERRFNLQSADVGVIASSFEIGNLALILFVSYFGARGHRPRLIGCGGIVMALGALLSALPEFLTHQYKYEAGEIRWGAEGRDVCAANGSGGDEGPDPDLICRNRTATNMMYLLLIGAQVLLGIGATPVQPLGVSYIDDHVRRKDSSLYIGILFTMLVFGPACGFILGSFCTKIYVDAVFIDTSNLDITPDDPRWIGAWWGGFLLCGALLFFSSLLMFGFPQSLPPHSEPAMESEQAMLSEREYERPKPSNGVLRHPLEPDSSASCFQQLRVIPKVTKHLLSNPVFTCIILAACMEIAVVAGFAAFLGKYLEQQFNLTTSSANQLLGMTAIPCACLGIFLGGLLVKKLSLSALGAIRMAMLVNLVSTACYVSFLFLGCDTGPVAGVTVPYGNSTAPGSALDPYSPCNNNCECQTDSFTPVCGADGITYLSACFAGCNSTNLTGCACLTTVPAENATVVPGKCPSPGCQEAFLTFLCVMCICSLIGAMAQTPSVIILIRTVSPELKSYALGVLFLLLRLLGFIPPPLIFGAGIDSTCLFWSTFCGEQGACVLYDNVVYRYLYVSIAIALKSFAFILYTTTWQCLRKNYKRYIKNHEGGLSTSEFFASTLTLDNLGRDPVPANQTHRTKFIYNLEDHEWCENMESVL

B1: OATP3A1 (Homo sapiens) (protein)
chain: MQGKKPGGSSGGGRSGELQGDEAQRNKKKKKKVSCFSNIKIFLVSECALMLAQGTVGAYLVSVLTTLERRFNLQSADVGVIASSFEIGNLALILFVSYFGARGHRPRLIGCGGIVMALGALLSALPEFLTHQYKYEAGEIRWGAEGRDVCAANGSGGDEGPDPDLICRNRTATNMMYLLLIGAQVLLGIGATPVQPLGVSYIDDHVRRKDSSLYIGILFTMLVFGPACGFILGSFCTKIYVDAVFIDTSNLDITPDDPRWIGAWWGGFLLCGALLFFSSLLMFGFPQSLPPHSEPAMESEQAMLSEREYERPKPSNGVLRHPLEPDSSASCFQQLRVIPKVTKHLLSNPVFTCIILAACMEIAVVAGFAAFLGKYLEQQFNLTTSSANQLLGMTAIPCACLGIFLGGLLVKKLSLSALGAIRMAMLVNLVSTACYVSFLFLGCDTGPVAGVTVPYGNSTAPGSALDPYSPCNNNCECQTDSFTPVCGADGITYLSACFAGCNSTNLTGCACLTTVPAENATVVPGKCPSPGCQEAFLTFLCVMCICSLIGAMAQTPSVIILIRTVSPELKSYALGVLFLLLRLLGFIPPPLIFGAGIDSTCLFWSTFCGEQGACVLYDNVVYRYLYVSIAIALKSFAFILYTTTWQCLRKNYKRYIKNHEGGLSTSEFFASTLTLDNLGRDPVPANQTHRTKFIYNLEDHEWCENMESVL
notes: full-length transporter overexpressed in HEK-293 cells by recombinant lentivirus

Legend:
[1] = biological target: T1, OATP3A1; assay: inhibition of CBRD2-BAT and CBRD4-BAT ([…]) uptake, flow cytometry; assay type: cell-based; conditions: Uptake buffer pH 5.5, 37 °C, 15 min preincubation with inhibitor
[2] = substrate: CCN(CC)c1ccc2cc(/C=C/c3cc[n+](CCCCCC(=O)NCc4ccc(-c5nncnn5)cc4)cc3S(=O)(=O)[O-])c(=O)oc2c1; assay: flow cytometry uptake into HEK-293-OATP3A1 cells, normalised to mock cells, Michaelis-Menten fit; assay type: cell-based, Homo sapiens; conditions: Uptake buffer pH 5.5, 37 °C, 15 min, transport
[3] = substrate: CN(C)c1ccc(/C=C/c2cc[n+](CCCCCC(=O)NCc3ccc(-c4nncnn4)cc3)cc2S(=O)(=O)[O-])cc1; assay: as above; assay type: cell-based, Homo sapiens; conditions: Uptake buffer pH 5.5, 37 °C, 15 min, transport

Molecule | % decrease of transport at 20 μM [1] | Km [2] [µM] | Km [3] [µM]
CCc1oc2ccccc2c1C(=O)c1cc(Br)c(O)c(Br)c1 [benzbromarone] | ~ 90% | – | –
B1 | – | 7.2 | 45
